In US11866731 one finds Expansion of T cells (fold, after 96 hours of co-culture with tumor cells and B cells), Expansion of T cells (fold, after 4 days of co-culture with B cells and J82-NY-ESO-1-Luc cells) and Killing of J82-NY ESO1 tumor cells by BCAR-TCR T (RTCA Cell Index), with against without B cells data, which are given here for one molecule.

Assay [1] deals with CD19 (B cell surface protein) on B cells (UniProt P15391). In words: cell-based or functional assay.
Assay [2] has the same target. In words: cell-based or functional assay. This is another data set of the same source.

Values joined by “and” are separate entries in the source; they are usually repeats but may differ in a detail not shown here. Identical values can stand only once. Like-named read-outs stand apart in the source and are kept apart here.

Chain of UniProt P15391 (P15391 20-556 limits assumed): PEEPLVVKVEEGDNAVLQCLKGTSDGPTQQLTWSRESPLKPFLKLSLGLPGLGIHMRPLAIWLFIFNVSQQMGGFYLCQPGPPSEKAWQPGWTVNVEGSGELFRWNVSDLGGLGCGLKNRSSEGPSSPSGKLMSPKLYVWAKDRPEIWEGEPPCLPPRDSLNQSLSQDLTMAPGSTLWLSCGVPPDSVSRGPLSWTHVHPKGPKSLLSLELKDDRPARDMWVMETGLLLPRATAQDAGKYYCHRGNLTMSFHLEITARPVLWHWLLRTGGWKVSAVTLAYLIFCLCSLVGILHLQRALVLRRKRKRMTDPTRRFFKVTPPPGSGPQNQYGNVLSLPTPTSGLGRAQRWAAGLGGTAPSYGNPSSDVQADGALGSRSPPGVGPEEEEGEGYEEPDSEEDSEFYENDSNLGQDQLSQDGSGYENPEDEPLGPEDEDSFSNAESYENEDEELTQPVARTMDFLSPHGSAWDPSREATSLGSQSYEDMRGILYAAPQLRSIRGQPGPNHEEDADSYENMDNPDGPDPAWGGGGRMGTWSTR

B1: chimeric antigen receptor targeting B cell surface protein (BCAR), CD19 CAR (protein, part only; not given: transmembrane and signaling domains, part only)
chain, part: DIVLTQSPASLAMSLQLGWRPGWFLDSPDRVIGAHLIHWYQQKPGQPPKLLIYLASNLETGVPARFSGSGSGTDFTLTIDPVEEDDVAIYSCLQSRIFPRTFGGGTKLEIKGGGGSGGGGSGGGGSQIQLVQSGPELKKPGETVKISCKASGYTFTDYSINWVKRAPGKGLKWMGWINTETREPAYAYDFRGRFAFSLETSASTAYLQINNLKYEDTATYFCALDYSYAMDYWGQGTSVTVSS
In assay [1], B1 showed an Expansion of T cells (fold, after 96 hours of co-culture with tumor cells and B cells) of 23 fold. In addition, in assay [2], the Expansion of T cells (fold, after 4 days of co-culture with B cells and J82-NY-ESO-1-Luc cells) is 12 fold and 27 fold; the Expansion of T cells (fold, after 96 hours of co-culture with tumor cells and B cells) was 25 fold; the Killing of J82-NY ESO1 tumor cells by BCAR-TCR T (RTCA Cell Index), with against without B cells worked out at 1000 times.
